Source: patent US20250197448A1, “CYCLOPEPTIBODIES AND USES THEREOF” (University of Rochester, priority 2022, published 2025)
“Also recorded” adds a separate entry of the source. Starred links: 1 amine or outer side, 2 acyl side, 3 side chain; linkers in the order of their positions; H or OH if unused. Positions of bridges follow the written chain, without caps; N, C: chain ends. Non-standard residues stand in square brackets, D forms with d. No end group written: not given here. O2beY = O-(2-bromoethyl)-tyrosine (p-2beF), reacts with Cys to form a thioether, O=C([C@H](Cc1ccc(OCCBr)cc1)N[*:1])[*:2]; pCaaF = p-(2-chloroacetamido)-phenylalanine, O=C(CCl)Nc1ccc(C[C@H](N[*:1])C(=O)[*:2])cc1

Legend:
[1] = biological target: T1, integrin αvβ3 on MDA-MB-231 cells (Homo sapiens, UniProt P05106+P06756); experiment: flow cytometry of MDA-MB-231 cells, integrin receptor labeling; format: cell-based; conditions: for labeling of integrin receptors on MDA-MB-231 cells (in words): FITC anti-IgG1 Fc detection
T1 construct: known to express high levels of integrin αvβ3 on their surface; endogenous in cells; host or cells: MDA-MB-231
T1 sequence (P06756 31-889 limits assumed): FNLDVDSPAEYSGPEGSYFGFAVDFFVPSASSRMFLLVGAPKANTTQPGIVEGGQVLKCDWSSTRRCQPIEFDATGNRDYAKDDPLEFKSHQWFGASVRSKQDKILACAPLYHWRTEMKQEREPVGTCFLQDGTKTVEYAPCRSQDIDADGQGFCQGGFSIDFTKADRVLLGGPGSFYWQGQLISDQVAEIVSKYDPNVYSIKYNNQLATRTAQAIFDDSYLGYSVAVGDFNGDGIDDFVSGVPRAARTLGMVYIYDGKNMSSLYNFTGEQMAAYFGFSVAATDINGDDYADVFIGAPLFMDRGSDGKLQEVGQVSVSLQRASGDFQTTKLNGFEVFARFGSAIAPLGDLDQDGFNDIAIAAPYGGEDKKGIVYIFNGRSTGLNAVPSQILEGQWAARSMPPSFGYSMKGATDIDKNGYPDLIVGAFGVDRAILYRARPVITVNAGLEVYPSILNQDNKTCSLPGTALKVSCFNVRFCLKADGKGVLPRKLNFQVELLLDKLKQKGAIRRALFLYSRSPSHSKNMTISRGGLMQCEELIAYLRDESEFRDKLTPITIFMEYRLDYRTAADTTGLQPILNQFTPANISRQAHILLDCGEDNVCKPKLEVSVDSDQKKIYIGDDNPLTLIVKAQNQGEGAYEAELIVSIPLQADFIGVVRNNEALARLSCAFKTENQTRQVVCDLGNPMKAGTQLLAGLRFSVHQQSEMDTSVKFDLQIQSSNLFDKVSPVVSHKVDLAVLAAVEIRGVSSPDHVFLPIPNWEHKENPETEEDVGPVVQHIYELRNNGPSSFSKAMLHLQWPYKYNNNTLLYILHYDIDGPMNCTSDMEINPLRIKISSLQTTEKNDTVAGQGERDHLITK
T1 sequence (P06756 891-1048 partner limits assumed): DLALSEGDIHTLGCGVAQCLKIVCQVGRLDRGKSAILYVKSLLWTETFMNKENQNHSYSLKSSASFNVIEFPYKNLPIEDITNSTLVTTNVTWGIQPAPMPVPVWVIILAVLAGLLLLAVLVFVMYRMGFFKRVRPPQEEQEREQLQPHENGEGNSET
T1 sequence (P05106 27-788): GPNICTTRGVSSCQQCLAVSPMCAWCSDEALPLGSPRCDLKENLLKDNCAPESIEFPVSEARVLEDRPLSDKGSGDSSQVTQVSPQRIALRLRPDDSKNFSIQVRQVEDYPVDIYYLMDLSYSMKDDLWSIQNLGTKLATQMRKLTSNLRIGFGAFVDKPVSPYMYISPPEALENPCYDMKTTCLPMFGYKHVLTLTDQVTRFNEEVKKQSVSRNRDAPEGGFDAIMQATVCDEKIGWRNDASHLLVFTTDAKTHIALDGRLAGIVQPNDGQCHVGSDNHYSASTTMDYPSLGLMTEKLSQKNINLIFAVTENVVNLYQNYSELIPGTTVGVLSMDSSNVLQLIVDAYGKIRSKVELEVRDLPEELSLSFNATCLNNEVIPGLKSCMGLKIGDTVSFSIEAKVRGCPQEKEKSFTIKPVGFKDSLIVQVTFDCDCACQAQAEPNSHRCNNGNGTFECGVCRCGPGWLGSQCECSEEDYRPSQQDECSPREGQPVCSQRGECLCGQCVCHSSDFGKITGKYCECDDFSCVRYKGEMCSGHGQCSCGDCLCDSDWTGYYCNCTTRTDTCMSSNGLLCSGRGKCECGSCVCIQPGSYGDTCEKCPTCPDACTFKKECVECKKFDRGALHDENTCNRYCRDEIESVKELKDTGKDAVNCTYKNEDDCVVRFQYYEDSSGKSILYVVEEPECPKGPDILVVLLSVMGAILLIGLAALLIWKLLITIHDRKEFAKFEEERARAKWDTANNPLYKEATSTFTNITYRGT
Method: Flow Cytometry Analysis. Cell line MDA-MB-231 was grown in culture to reach confluency. When confluent, media was aspirated, cells were washed once with 1×DPBS (no calcium, no magnesium) (Gibco). Adherent cells were detached from the petri dish with 1 mL of accutase (Gibco) pre-warmed to 37° C., followed by incubated for 5 min at 37° C. Cells were spun down using centrifugation. Supernatant was removed and cells were washed three times with staining buffer (1×PBS with 0.5% BSA). Cells were resuspended in Eppendorf tubes in 100 μL PBS at a concentration of […]. Cyclopeptibodies or Human anti-PD-L1 antibody (1 μg) (R&D Systems, MAB10355) in staining buffer were then added to the tubes with a concentration of 1.5 μM in 200 μL. Eppendorf tubes were then placed on the platform shaker for gently shaking for 1 hour at room temperature. After 1 hour, cells were spun down using centrifugation, then supernatant was removed. After washing three times, cells were resuspended in 200 μL of Fluorescein (FITC) AffiniPure Goat Anti-Human IgG with working concentration of 30 μg/mL (Jackson ImmunoResearch, 109-095-098), incubated in the dark for 30 min at room temperature. Cells were washed as described above, then resuspended in 400 μL staining buffer. Then cells were analyzed on a BD FACS Accuri C6^+ using a filter of 533/30. The cells of interest were gated using Forward and Side scatter (FSC/SSC). 10,000 singlet events were collected for each specimen.
After purification as described in Example 2, these cyclopeptibodies were used to treat breast cancer cells (MDA-MB-231), which are known to express high levels of integrin αvβ3 on their surface. The cyclopeptibody treated cells were then analyzed by flow cytometry using a procedure similar to that described for the PD-L1-targeting cyclopeptibodies in Example 9.

[2] = serum stability assay in human blood serum; format: in vitro ADME
Method: The proteolytic stability of cyclopeptibodies cCLP003-Tras-Fc and L2-m5-Tras-Fc were assessed by incubating these proteins in human blood serum, followed by measurement of the cyclopeptibody activity using an in vitro binding assay with plate-immobilized PD-L1 or Sh as described in Example 7 and 8, respectively.
Serum stability Assay. The human male serum (Sigma-Aldrich) was clarified by centrifugation at 14 000 rpm for 15 min. 50% serum was prepared in phosphate-buffered saline (pH 7.4), then incubated at 37° C. Cyclopeptiodies were dissolved in 30 μL of 50% serum at a final concentration of 1 μM, incubated at 37° C. Serum samples with diluted cyclopeptibodies were prepared in the same way described above over a time course of 30 h for cCLP003-Tras-Fc-His and 24 h for L2-m5-Tras-Fc-His, followed by incubated at 37° C. Intact cyclopeptibodies in serum were quantified using the binding assay described above. In the assay, immobilized PD-L1 or Shh was incubated with 100 μL of serum samples diluted with PBS (1:10 dilution for cCLP003-Tras-Fc-His, 1:100 dilution for L2-m5-Tras-Fc-His). Intact cyclopeptibody in each sample was detected with HRP-conjugate mouse anti-FLAG polyclonal antibody. The absolute concentration of intact cyclopeptibody in each serum sample was quantified using a calibration curve, which was generated from a binding assay in which immobilized PD-L1 or Shh was incubated with cyclopeptibody in serial dilution (0-100 nM for cCLP003-Tras-Fc-His; 0-10 nM for L2-m5-Tras-Fc-His), followed by detected with HRP-conjugate mouse anti-FLAG polyclonal antibody, absorbance at 450 nm was measured as a function of cyclopeptibody concentration.

[3] = biological target: T2, PD-L1 receptor on MDA-MB-231 cells (Homo sapiens, UniProt Q9NZQ7); experiment: flow cytometry of MDA-MB-231 cells, PD-L1 labeling with FITC anti-human IgG Fc; format: cell-based; conditions: concentration not given at the place
T2 construct: known to express high levels of PD-L1 on their surface; endogenous in cells; host or cells: MDA-MB-231
T2 sequence (Q9NZQ7 19-290): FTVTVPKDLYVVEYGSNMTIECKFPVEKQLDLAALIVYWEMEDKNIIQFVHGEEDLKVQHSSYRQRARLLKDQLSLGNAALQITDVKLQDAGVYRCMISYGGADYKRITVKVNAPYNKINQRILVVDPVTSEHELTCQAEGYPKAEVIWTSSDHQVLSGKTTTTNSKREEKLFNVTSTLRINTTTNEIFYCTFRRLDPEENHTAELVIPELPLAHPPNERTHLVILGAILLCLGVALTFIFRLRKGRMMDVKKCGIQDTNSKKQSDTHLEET
Method: The cells were then incubated with fluorescein-conjugated anti-human IgG Fc antibody and analyzed by flow cytometry. The same experiment was carried out in parallel using commercially available anti-PD-L1 antibody as positive control and various negative controls.
Flow Cytometry Analysis. […] When confluent, media was aspirated, cells were washed once with 1×DPBS (no calcium, no magnesium) (Gibco). Adherent cells were detached from the petri dish with 1 mL of accutase (Gibco) pre-warmed to 37° C., followed by incubated for 5 min at 37° C. Cells were spun down using centrifugation. Supernatant was removed and cells were washed three times with staining buffer (1×PBS with 0.5% BSA). Cells were resuspended in Eppendorf tubes in 100 μL PBS at a concentration of 107cells per mL. […] Eppendorf tubes were then placed on the platform shaker for gently shaking for 1 hour at room temperature. After 1 hour, cells were spun down using centrifugation, then supernatant was removed. […] Cells were washed as described above, then resuspended in 400 μL staining buffer. […] The cells of interest were gated using Forward and Side scatter (FSC/SSC). 10,000 singlet events were collected for each specimen.

streptavidin = biological target: T3, streptavidin (Streptomyces avidinii, UniProt P22629); experiment: in vitro streptavidin binding assay (streptavidin-coated plates, anti-FLAG HRP detection)
T3 construct: purchased Sigma-Aldrich
T3 sequence (P22629 25-183): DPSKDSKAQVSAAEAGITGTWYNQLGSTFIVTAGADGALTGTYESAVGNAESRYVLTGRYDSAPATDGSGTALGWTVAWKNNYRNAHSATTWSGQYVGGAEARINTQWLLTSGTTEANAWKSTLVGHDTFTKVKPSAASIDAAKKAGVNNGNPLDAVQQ
Description: To prepare a cyclopeptibody capable of binding the protein streptavidin, a cyclic streptavidin-binding peptide previously discovered via phage display (Owens et al, ACS Cent Sci. (2020); 6(3):368-381) was genetically fused to the Fc domain of human IgG1 via a spacer (Entry 1, Table 1). The resulting cyclopeptibody (called Strep-m3-Tras-Fc) was expressed, purified, and characterized as described in Example 4. This construct was confirmed to contain the cyclic peptide constrained via O2beY/Cys thioether (i/i-8) linkage, where ‘i’ indicates the position of the non-canonical amino acid O2beY (also refereed to herein as p-2beF). […]
Streptavidin Binding Assay. […] After washing three times with wash buffer, 100 μL of 2.2 mM o-phenylenediamine dihydrochloride, 4.2 mM urea hydrogen peroxide, 100 mM dibasic sodium phosphate, and 50 mM sodium citrate, pH 5.0, were added to each well, followed by measurement of the absorbance at 450 nm after 10-20 min using a Tecan Infinite 1000 plate reader. Equilibrium dissociation constants (Kp) were determined by fitting the dose-response curves to a 1:1 binding isotherm equation via nonlinear regression. using SigmaPlot. Mean values and standard deviations were calculated from experiments performed in triplicate.

PD-1/PD-L1 interaction = biological target: T4, PD-1/PD-L1 interaction (Homo sapiens, UniProt Q9NZQ7); experiment: PD-L1 competition assay with biotinylated PD-1; format: binding
T4 construct: poly-histidine (C); made in house; PD-1 co-expressed with BirA
T4 sequence (Q9NZQ7 19-238 limits assumed): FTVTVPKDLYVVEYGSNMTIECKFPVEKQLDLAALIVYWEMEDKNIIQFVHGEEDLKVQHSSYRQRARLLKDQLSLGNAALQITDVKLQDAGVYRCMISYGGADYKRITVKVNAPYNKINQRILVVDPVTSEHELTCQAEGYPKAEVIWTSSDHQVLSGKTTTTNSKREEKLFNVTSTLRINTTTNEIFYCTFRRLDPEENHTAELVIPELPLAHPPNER
Method: Next, we examined the ability of the cyclopeptibody cCLP003-Tras-Fc to inhibit the PD-1/PD-L1 interaction using a competition assay with recombinant biotinylated PD-1 (Bio-PD-1). Briefly, PD-L1 immobilized on a plate was incubated with Bio-PD-1 and varying concentrations of cCLP003-Tras-Fc or control Fc. The PD-L1-bound PD-1 was then quantified colorimetrically (OD450) using horseradish peroxidase (HRP)-conjugated streptavidin.
PD-L1 Competition Assay. PD-L1 was immobilized on microtiter plates as described above. followed by decanting the protein solution and blocking with 0.5% bovine serum albumin in PBS for 2 h at room temperature. After washing, each well was incubated with 100 μL of serial dilutions of cCLP003-Tras-Fc-His for 1 hour at room temperature. Biotinylated PD-1 (500 nM) was added and incubated for 1 h at room temperature. After washing, the bound PD-1 was quantified by means of HRP-conjugate Streptavidin and colorimetric assay as described above. The inhibitory constant (IC50) was determined by fitting the dose-response curves to a 4-parameter equation via nonlinear regression using SigmaPlot. Mean values and standard deviations were calculated from experiments performed in triplicate.

Sonic Hedgehog (Shh) = Sonic Hedgehog (Shh) (Homo sapiens, UniProt Q15465); experiment: in vitro Shh binding assay (plate-immobilized Shh)
Method: Streptavidin Binding Assay. For the streptavidin binding assays, streptavidin-coated plates (Sigma-Aldrich) were used. For the Keap1, Shh and PD-L1 binding assay, target protein was immobilized on microtiter plates by incubating 100 μL of a 4 μM protein solution in PBS buffer overnight at 4° C., followed by decanting the protein solution and blocking with 0.5% bovine serum albumin in PBS for 2 h at room temperature. After washing (3×150 μL of PBS with 0.05% Tween-20), each well was incubated with 100 μL of purified FLAG-tagged cyclopeptibody at varying concentrations for 1 hour at room temperature. After washing three times with wash buffer, each well was incubated with 100 μL of 1:2500 dilution of HRP-conjugate mouse anti-FLAG polyclonal antibody (Sigma-Aldrich) for 1 hour at room temperature. After washing three times with wash buffer, 100 μL of 2.2 mM o-phenylenediamine dihydrochloride, 4.2 mM urea hydrogen peroxide, 100 mM dibasic sodium phosphate, and 50 mM sodium citrate, pH 5.0, were added to each well, followed by measurement of the absorbance at 450 nm after 10-20 min using a Tecan Infinite 1000 plate reader. Equilibrium dissociation constants (Kp) were determined by fitting the dose-response curves to a 1:1 binding isotherm equation via nonlinear regression. using SigmaPlot. Mean values and standard deviations were calculated from experiments performed in triplicate. […]

FLAG-(GS)2-CRDRGDYZ-(Q)6-IEGR-(Fc)^1-H6 (DYKDDDDKGSGSCRDRGDY[pCaaF]QQQQQQIEGR-{Fc-H6}; thioether 13-20 (inferred)) [RGD5R (pCaaF)-Tras-Fc]
labeling of integrin receptors on MDA-MB-231 cells (in words) [1]: label the cells | labeling of integrin receptors on MDA-MB-231 cells (in words) ([1]; listed as cRGD5R (pCaaF)-Tras-Fc): selective labeling of the integrin receptors

FLAG-(GS)2-CRDRGDYZ-(Q)6-IEGR-(Fc)^1-H6 [RGD5R (pCmF)-Tras-Fc]
labeling of integrin receptors on MDA-MB-231 cells (in words) ([1]; listed as cRGD5R (pCmF)-Tras-Fc): selective labeling of the integrin receptors | receptor affinity and labeling efficiency compared to the corresponding cyclic peptides ([1]; MDA-MB-231 cells): superior receptor affinity and labeling efficiency

FLAG-(GS)2-TLSWZEAMDMCTSS-(Q)6-(Fc)^1-H6 (DYKDDDDKGSGSTLSW[O2beY]EAMDMCTSSQQQQQQ-{Fc-H6}; thioether 17-23 (inferred)) [L2-m5-Tras-Fc]
half-life in human blood serum, indicated ([2]; 50% serum, 37° C., readout Shh binding assay): 30 to 50 h | loss in activity in human blood serum ([2]; over 24 h, readout Shh binding assay): no loss in activity

FLAG-(GS)2-WHFSZNWRWLPC-(Q)6-(Fc)^1-H6 (DYKDDDDKGSGSWHFS[pCaaF]NWRWLPCQQQQQQ; thioether 17-24 (inferred); not fully specified (C-terminus)) [cCLP003-Tras-Fc]
half-life in human blood serum ([2]; 50% serum, 37° C., readout PD-L1 binding assay): over 24 hrs. | staining / labeling of PD-L1 receptors on MDA-MB-231 cells (in words) [3]: selective labeling of PD-L1 receptors

Fc domain: human IgG1 Fc domain alone, negative control [reference compound]
streptavidin binding (in words) (streptavidin): no binding | inhibition of PD-1/PD-L1 interaction (in words) (PD-1/PD-L1 interaction): did not exhibit significant inhibitory activity | staining / labeling of PD-L1 receptors on MDA-MB-231 cells (in words) [3]: negligible non-specific interaction | staining / labeling of PD-L1 receptors on MDA-MB-231 cells (in words) ([3]; listed as human IgG1 Fc domain): negligible staining | Shh binding (in words) (Sonic Hedgehog (Shh)): no significant binding below 500 nM | labeling of integrin receptors on MDA-MB-231 cells (in words) [1]: minimal or significantly reduced staining; also recorded: negligible non-specific interaction
